Measured values: paper PMC11393876 (Cancers, 2024)

Key:
Conditions in all cases: both partners purified
[1] = target: T1, human PD-1 (Homo sapiens, UniProt Q15116); experiment: SPR; P1801 (2 µg/mL) captured on the surface; human PD-1 proteins injected; 25 °C; HBS-EP (10 mM HEPES, 150 mM NaCl, 3 mM EDTA, 0.05% Tween 20, pH 7.4)
T1 construct: programmed cell death 1 (PD-1), human; also called PD-1/His antigen; human PD-1 proteins; source: bought: Sino Biological (HPLC-10377-H08H) for the ELISA

[2] = target: T1, human PD-1; experiment: ELISA; direct binding ELISA; antigens coated overnight, blocked with 1% BSA 2 h; P1801 incubated at 25 °C for 1 h; detected with peroxidase goat anti-hIgG Fc
[3] = target: T2, cynomolgus PD-1 (Macaca fascicularis (cynomolgus), UniProt B0LAJ3); experiment: as above
T2 construct: PD-1, cynomolgus monkey, GenBank NP_001271065.1; source: bought: Sino Biological (90311-C08H)

[4] = target: T3, mouse PD-1 (Mus musculus, UniProt Q02242); experiment: as above
T3 construct: PD-1, mouse; source: bought: Sino Biological (50124-M08H)

[5] = target: T4, human PD-L1 (human, UniProt Q9NZQ7); experiment: as above
T4 construct: programmed death-ligand 1 (PD-L1), human; also called programmed death-ligand 1; source: bought: Sino Biological (10084-H08H)

[6] = target: T5, human PD-L2 (human, UniProt Q9BQ51); experiment: as above
T5 construct: PD-L2, human; source: bought: Sino Biological (10292-H08H)

[7] = target: T6, human CTLA-4 (Homo sapiens, UniProt P16410); experiment: as above
T6 construct: CTLA-4, human; source: bought: Sino Biological (11159-H08H)

[8] = target: T7, human CD28 (Homo sapiens, UniProt P10747); experiment: as above
T7 construct: CD28, human; source: bought: Sino Biological (11524-HCCH)

[9] = target: T8, Biotin-hPD-1-mIgG Fc (human, UniProt Q15116, biotin); experiment: ELISA; competitive ELISA; human PD-L1 coated; Biotin-hPD-1-mIgG Fc at 0.025 μg/mL as binder; serial dilutions of P1801 from 0.5 μg/mL as competitor; 25 °C, 2 h
T8 construct: PD-1, human; also called hPD-1-mFc; source: PharmaEssentia, purified fusion protein

[10] = target: T8, Biotin-hPD-1-mIgG Fc; experiment: ELISA; competitive ELISA; human PD-L2 coated; Biotin-hPD-1-mIgG Fc at 0.025 μg/mL as binder; serial dilutions of P1801 from 0.5 μg/mL as competitor; 25 °C, 2 h

T1 sequence (Q15116 25-170): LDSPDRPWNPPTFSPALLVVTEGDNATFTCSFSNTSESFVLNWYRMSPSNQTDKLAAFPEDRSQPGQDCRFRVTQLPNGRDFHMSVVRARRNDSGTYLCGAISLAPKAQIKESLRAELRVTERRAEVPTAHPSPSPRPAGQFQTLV
T8 sequence (Q15116 25-170): as above
T4 sequence (Q9NZQ7 19-238): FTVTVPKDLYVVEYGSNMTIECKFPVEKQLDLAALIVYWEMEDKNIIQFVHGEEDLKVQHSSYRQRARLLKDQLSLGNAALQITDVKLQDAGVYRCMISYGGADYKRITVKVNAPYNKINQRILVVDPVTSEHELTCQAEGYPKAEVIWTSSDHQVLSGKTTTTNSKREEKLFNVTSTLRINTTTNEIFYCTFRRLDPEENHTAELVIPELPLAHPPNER
T7 sequence (P10747 19-152): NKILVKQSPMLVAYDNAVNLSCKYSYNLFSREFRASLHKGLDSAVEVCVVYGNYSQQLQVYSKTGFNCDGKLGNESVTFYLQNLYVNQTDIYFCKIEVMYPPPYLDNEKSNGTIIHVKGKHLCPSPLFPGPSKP
T6 sequence (P16410 36-161): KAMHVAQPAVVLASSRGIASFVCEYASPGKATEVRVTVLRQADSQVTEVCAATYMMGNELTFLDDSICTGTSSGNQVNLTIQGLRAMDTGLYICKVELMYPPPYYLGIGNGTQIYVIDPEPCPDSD
T3 sequence (Q02242 25-169): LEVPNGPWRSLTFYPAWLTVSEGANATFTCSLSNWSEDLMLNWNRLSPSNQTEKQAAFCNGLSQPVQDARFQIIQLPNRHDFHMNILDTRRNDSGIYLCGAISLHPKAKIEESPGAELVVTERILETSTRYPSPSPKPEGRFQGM
T5 sequence (Q9BQ51 20-220): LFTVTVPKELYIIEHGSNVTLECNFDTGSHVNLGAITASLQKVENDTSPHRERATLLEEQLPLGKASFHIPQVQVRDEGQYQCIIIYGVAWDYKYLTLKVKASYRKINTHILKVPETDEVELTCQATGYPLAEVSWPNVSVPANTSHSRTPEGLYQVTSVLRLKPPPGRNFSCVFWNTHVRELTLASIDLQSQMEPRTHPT

B1: P1801 (antibody, V domains shown)
VH: EVQLVESGGGLVQPGGSLRLSCAASGFTFSSYDMSWVRQAPGKGLEWVATITGGGSYTYYPDSVKGRFTISRDNAKNSLYLQMNSLRAEDTAVYYCASPYLNYFDYWGQGTLVTVSS
VL: EIVLTQSPATLSLSPGERATLSCRASQSISNNLHWYQQKPGQAPRLLIYYASQSISGIPARFSGSGSGTDFTLTISSLEPEDFAVYYCQQSNSWPLTFGQGTKLEIK
notes: 464 residues; mouse CDR1-3 in a human IgG4 framework with the S228P mutation; kappa light chain, 234 residues; mouse CDRs in a human framework; IgG4 kappa, S228P; humanized from murine clone PD-1RB-M59; The printed lengths (464 and 234 residues) may include signal peptides; Molecular weight 146,799 Da; also called anti-human PD-1 IgG4 humanized monoclonal antibody; source: CHO cell expression …
Work on B1 yielded a Kd [1] of 2.5 nM, an EC50 [2] of 0.57 nM and an EC50 [3] of 0.44 nM. B1: no binding [4]; no binding [5]; no binding [6]. For the same binder, the binding result [7] was “no binding”, the binding result [8] was “no binding” and the IC50 [9] was 0.57 nM. It also gave an IC50 [10] of 0.9 nM.
